Data as given in IntAct's records for PubMed 22921914.

B1: Protein SCARECROW (Arabidopsis thaliana (Mouse-ear cress)), Q9M384 (parent)
chain: MAESGDFNGGQPPPHSPLRTTSSGSSSSNNRGPPPPPPPPLVMVRKRLASEMSSNPDYNNSSRPPRRVSHLLDSNYNTVTPQQPPSLTAAATVSSQPNPPLSVCGFSGLPVFPSDRGGRNVMMSVQPMDQDSSSSSASPTVWVDAIIRDLIHSSTSVSIPQLIQNVRDIIFPCNPNLGALLEYRLRSLMLLDPSSSSDPSPQTFEPLYQISNNPSPPQQQQQHQQQQQQHKPPPPPIQQQERENSSTDAPPQPETVTATVPAVQTNTAEALRERKEEIKRQKQDEEGLHLLTLLLQCAEAVSADNLEEANKLLLEISQLSTPYGTSAQRVAAYFSEAMSARLLNSCLGIYAALPSRWMPQTHSLKMVSAFQVFNGISPLVKFSHFTANQAIQEAFEKEDSVHIIDLDIMQGLQWPGLFHILASRPGGPPHVRLTGLGTSMEALQATGKRLSDFADKLGLPFEFCPLAEKVGNLDTERLNVRKREAVAVHWLQHSLYDVTGSDAHTLWLLQRLAPKVVTVVEQDLSHAGSFLGRFVEAIHYYSALFDSLGASYGEESEERHVVEQQLLSKEIRNVLAVGGPSRSGEVKFESWREKMQQCGFKGISLAGNAATQATLLLGMFPSDGYTLVDDNGTLKLGWKDLSLLTASAWTPRS
partner: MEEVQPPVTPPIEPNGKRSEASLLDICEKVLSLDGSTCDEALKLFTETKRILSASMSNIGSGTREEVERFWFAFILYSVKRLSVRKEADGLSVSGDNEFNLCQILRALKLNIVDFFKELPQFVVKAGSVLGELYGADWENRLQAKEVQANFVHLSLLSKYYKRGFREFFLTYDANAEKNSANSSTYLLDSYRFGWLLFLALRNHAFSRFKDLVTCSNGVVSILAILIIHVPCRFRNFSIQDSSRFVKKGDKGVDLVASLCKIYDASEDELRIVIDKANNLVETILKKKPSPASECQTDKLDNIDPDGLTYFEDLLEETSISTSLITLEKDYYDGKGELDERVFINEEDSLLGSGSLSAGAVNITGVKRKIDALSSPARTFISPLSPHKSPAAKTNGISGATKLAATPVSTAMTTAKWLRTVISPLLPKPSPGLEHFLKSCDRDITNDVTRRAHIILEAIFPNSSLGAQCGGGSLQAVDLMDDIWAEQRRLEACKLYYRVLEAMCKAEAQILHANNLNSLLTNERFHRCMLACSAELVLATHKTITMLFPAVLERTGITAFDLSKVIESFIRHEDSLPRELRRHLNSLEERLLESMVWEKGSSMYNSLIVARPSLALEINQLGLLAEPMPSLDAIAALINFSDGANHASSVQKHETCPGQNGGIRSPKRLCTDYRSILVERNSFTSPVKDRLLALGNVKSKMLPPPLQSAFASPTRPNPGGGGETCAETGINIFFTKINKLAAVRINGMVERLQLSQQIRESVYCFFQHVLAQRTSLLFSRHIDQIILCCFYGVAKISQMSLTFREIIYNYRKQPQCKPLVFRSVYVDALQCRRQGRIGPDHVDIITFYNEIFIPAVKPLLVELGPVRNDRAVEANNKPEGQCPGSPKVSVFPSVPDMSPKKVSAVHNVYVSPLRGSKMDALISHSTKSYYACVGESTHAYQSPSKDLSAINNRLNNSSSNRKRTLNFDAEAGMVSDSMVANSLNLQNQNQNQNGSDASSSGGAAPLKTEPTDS

Variants of: B1
Settings: with rbr1_arath RBR1, Q9LKZ3
L295A;E299A was tested, and the “effect of a mutation on the interaction” value was “disrupting interaction strength”.
